{
  "source": "patent US20210388087A1",
  "about": "(Chugai, published 2021)",
  "biological_target": "T1, CD3 epsilon homodimer protein (UniProt P07766 23-126)",
  "T1 construct": "immobilized on Sensor chip CM4 by amine coupling; also called CD3 (CD3 epsilon)",
  "T1 sequence (P07766 23-126)": "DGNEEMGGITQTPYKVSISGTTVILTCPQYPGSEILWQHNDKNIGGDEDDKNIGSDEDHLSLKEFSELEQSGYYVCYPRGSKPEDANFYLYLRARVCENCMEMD",
  "experiment": "SPR (Biacore T200), CD3 epsilon homodimer on CM4 chip, one-arm antibody as analyte, 25 C;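 note: homodimer attached to the sensor surface via amine coupling, HBS-EP+ used as running buffer during binding runs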",
  "data": [
    {"binder": "CE115HA000 Y58K one-arm antibody (antibody, human IgG1, kappa, L234A L235A, N297A, name in Kabat numbering) heavy: QVQLVESGGGVVQPGRSLRLSCAASGFTFSNAWMHWVRQAPGKGLEWVAQIKAKSNNYATKYAESVKGRFTISRDDSKNSLYLQMNSLKTEDTAVYYCRYVHYGAYYGVDAWGQGTTVTVSSASTKGPSVFPLAPSSKSTSGGTAALGCLVKDYFPEPVTVSWNSGALTSGVHTFPAVLQSSGLYSLSSVVTVPSSSLGTQTYICNVNHKPSNTKVDKKVEPKSCDKTHTCPPCPAPEAAGGPSVFLFPPKPKDTLMISRTPEVTCVVVDVSHEDPEVKFNWYVDGVEVHNAKTKPREEQYASTYRVVSVLTVLHQDWLNGKEYKCKVSNKALPAPIEKTISKAKGQPREPQVYTLPPSRCELTKNQVSLSCAVKGFYPSDIAVEWESNGQPENNYKTTPPVLDSDGSFFLVSKLTVDKSRWQQGNVFSCSVMHEALHNHYTQKSLSLSPDYKDDDDK EPKSSDKTHTCPPCPAPELLGGPSVFLFPPKPKDTLMISRTPEVTCVVVDVSHEDPEVKFNWYVDGVEVHNAKTKPREEQYNSTYRVVSVLTVLHQDWLNGKEYKCKVSNKALPAPIEKTISKAKGQPREPQVCTLPPSRDELTKNQVSLWCLVKGFYPSDIAVEWESNGQPENNYKTTPPVLDSDGSFFLYSKLTVDKSRWQQGNVFSCSVMHEALHNRYTQKSLSLSP light: DIVMTQSPLSLPVTPGEPASISCRSSQSLVHSNRNTYLHWYQQKPGQAPRLLIYKVSNRFSGVPDRFSGSGSGTDFTLKISRVEAEDVGVYYCGQGTQVPYTFGQGTKLEIKRTVAAPSVFIFPPSDEQLKSGTASVVCLLNNFYPREAKVQWKVDNALQSGNSQESVTEQDSKDSTYSLSSTLTLSKADYEKHKVYACEVTHQGLSSPVTKSFNRGEC", "values": [
      {"measurement": "ratio of amounts bound (altered form / CE115HA000)", "value": 0.3}
    ]},
    {"binder": "CE115HA000 Y58L one-arm antibody (antibody, human IgG1, kappa, L234A L235A, N297A, name in Kabat numbering) heavy: QVQLVESGGGVVQPGRSLRLSCAASGFTFSNAWMHWVRQAPGKGLEWVAQIKAKSNNYATLYAESVKGRFTISRDDSKNSLYLQMNSLKTEDTAVYYCRYVHYGAYYGVDAWGQGTTVTVSSASTKGPSVFPLAPSSKSTSGGTAALGCLVKDYFPEPVTVSWNSGALTSGVHTFPAVLQSSGLYSLSSVVTVPSSSLGTQTYICNVNHKPSNTKVDKKVEPKSCDKTHTCPPCPAPEAAGGPSVFLFPPKPKDTLMISRTPEVTCVVVDVSHEDPEVKFNWYVDGVEVHNAKTKPREEQYASTYRVVSVLTVLHQDWLNGKEYKCKVSNKALPAPIEKTISKAKGQPREPQVYTLPPSRCELTKNQVSLSCAVKGFYPSDIAVEWESNGQPENNYKTTPPVLDSDGSFFLVSKLTVDKSRWQQGNVFSCSVMHEALHNHYTQKSLSLSPDYKDDDDK EPKSSDKTHTCPPCPAPELLGGPSVFLFPPKPKDTLMISRTPEVTCVVVDVSHEDPEVKFNWYVDGVEVHNAKTKPREEQYNSTYRVVSVLTVLHQDWLNGKEYKCKVSNKALPAPIEKTISKAKGQPREPQVCTLPPSRDELTKNQVSLWCLVKGFYPSDIAVEWESNGQPENNYKTTPPVLDSDGSFFLYSKLTVDKSRWQQGNVFSCSVMHEALHNRYTQKSLSLSP light: DIVMTQSPLSLPVTPGEPASISCRSSQSLVHSNRNTYLHWYQQKPGQAPRLLIYKVSNRFSGVPDRFSGSGSGTDFTLKISRVEAEDVGVYYCGQGTQVPYTFGQGTKLEIKRTVAAPSVFIFPPSDEQLKSGTASVVCLLNNFYPREAKVQWKVDNALQSGNSQESVTEQDSKDSTYSLSSTLTLSKADYEKHKVYACEVTHQGLSSPVTKSFNRGEC", "values": [
      {"measurement": "ratio of amounts bound (altered form / CE115HA000)", "value": 0.27}
    ]}
  ]
}
